{"source": "patent US20150133524", "target": "PDH E1α subunit (pyruvate dehydrogenase E1 alpha subunit, 41 kDa) (UniProt P35486)", "sequence (P35486 30-390)": "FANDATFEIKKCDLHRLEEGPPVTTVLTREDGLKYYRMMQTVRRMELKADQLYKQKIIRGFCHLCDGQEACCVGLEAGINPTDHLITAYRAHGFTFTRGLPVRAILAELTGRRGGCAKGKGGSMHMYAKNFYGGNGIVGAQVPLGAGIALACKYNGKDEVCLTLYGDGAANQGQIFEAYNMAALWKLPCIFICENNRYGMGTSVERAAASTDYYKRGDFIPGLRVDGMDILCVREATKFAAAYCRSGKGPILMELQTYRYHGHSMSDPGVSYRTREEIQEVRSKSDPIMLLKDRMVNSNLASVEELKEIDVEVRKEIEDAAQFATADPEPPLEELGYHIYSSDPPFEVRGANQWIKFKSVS", "data": [{"substance": "human PDK1 (pyruvate dehydrogenase kinase, isoenzyme 1)", "values": [{"measurement": "PDH E1α subunit phosphorylation (immunoblot after two-dimensional gel electrophoresis of lysates of Hif1a-/- MEFs with forced PDK1 expression against empty vector)", "value": "This overexpression resulted in increased PDH E1α subunit phosphorylation"}]}]}
